This series can be described thus: self-splicing fitness, log relative to wild type (ln ratio); higher = more splicing; Tetrahymena group I intron in knt gene, E. coli kanamycin selection, DiMSum; sequences stand for … in CUCUCU…GGAGGGAAAAGUUAUCAGGCAUGCACCUGGUAGCUAGUCUUUAAACCAAUAGAUUGCAUCGGUUUAAAAGGCAAGACCGUCAAAUUGCGGGAAAGGGGUCAACAGCCGUUCAGUACCAAGUCUCAGGGGAAACUUUGAGAUGGCCUUGCAAAGGGUAUGGUAAUAAGCUGACGGACAUGGUCCUAACCACGCAGCCAAGUCCUAAGUCAACAGAUCUUCUGUUGAUAUGGAUGCAGUUCACAGACUAAAUGUCGGUCGGGGAAGAUGUAUUCUUCUCAUAAGAUAUAGUCGGACCUCUCCUUAAUGGGAGCUAGCGGAUGAAGUGAUGCAACACUGGAGCCGCUGGGAACUAAUUUGUAUGCGAAAGUAUAUUGAUUAGUUUUGGAGUACUCGUGGUCG
In a few lines: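 Colonies from six replicate transformations of E. coli BL21(DE3) were pooled and amplicon-sequenced on an Illumina HiSeq 2500. The library placed an intron with all eight P1ex-region nucleotides randomised inside the knt kanamycin-resistance gene on pET-22b(+), and cells grew overnight at 37°C or 30°C on LB agar with or without 25 μg/mL kanamycin (plus 100 μg/mL carbenicillin, 50 μM IPTG, 0.2% rhamnose). Fitness is the DiMSum error-weighted combination of wild-type-normalised replicate fold changes, kanamycin versus none.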

± gives the uncertainty stated by the source.

Regarding AUCAAGCAAUAUUACGCGCA, the “self-splicing fitness (ln)” value is, setting by setting: (30 °C) -0.314 ± 0.073; (37 °C) 0.448 ± 0.098.
The matching figures for AUCAAGCAAUAUUACGCUAG: -2.76 ± 0.16 and -1.03 ± 0.13.
The corresponding values for AUCAAGCAAUAUUACGCUUU are -3.57 ± 0.15 and -2.31 ± 0.12.
The corresponding values for AUCAAGCAAUAUUACGGUGG are -3.54 ± 0.19 and -2.63 ± 0.2.
For the sequence AUCAAGCAAUAUUACGUAAG, the “self-splicing fitness (ln)” value is -2.05 ± 0.097 (30 °C) and -1.45 ± 0.13 (37 °C).
The corresponding values for AUCAAGCAAUAUUACGUACG are -2.54 ± 0.11 and -0.576 ± 0.11.
Take AUCAAGCAAUAUUACGUAGA: the “self-splicing fitness (ln)” value runs as follows: (30 °C) -1.36 ± 0.094; (37 °C) -1.66 ± 0.17.
The corresponding values for AUCAAGCAAUAUUACGUCAA are -3.14 ± 0.2 and -0.928 ± 0.15.
The corresponding values for AUCAAGCAAUAUUACGUCCG are -2.1 ± 0.14 and -1.14 ± 0.16.
Consider AUCAAGCAAUAUUACGUGAA, for which the “self-splicing fitness (ln)” value is -1.73 ± 0.071 (30 °C) and -1.45 ± 0.1 (37 °C).
As to AUCAAGCAAUAUUACGUUGG, the “self-splicing fitness (ln)” value was -2.7 ± 0.13 (30 °C) and -2.25 ± 0.16 (37 °C).
The corresponding values for AUCAAGCAAUAUUACGUUGU are -3.46 ± 0.17 and -1.92 ± 0.12.
As to AUCCAGCAAUAUUACGACAA, the “self-splicing fitness (ln)” value runs as follows: (30 °C) -0.977 ± 0.095; (37 °C) -0.337 ± 0.096.
The matching figures for AUCCAGCAAUAUUACGCGGG: -3.37 ± 0.13 and -2.42 ± 0.17.
The corresponding values for AUCCAGCAAUAUUACGCGUA are -0.536 ± 0.089 and -0.499 ± 0.097.
The corresponding values for AUCCAGCAAUAUUACGGACU are -0.507 ± 0.068 and 0.126 ± 0.082.
As for AUCCAGCAAUAUUACGGAUG, the “self-splicing fitness (ln)” value is -2.21 ± 0.094 (30 °C) and -1.68 ± 0.12 (37 °C).
The corresponding values for AUCCAGCAAUAUUACGGCUU are -0.0325 ± 0.076 and 0.438 ± 0.1.
As to AUCCAGCAAUAUUACGGGUA, the “self-splicing fitness (ln)” value (30 °C) is -1.58 ± 0.1 and the “self-splicing fitness (ln)” value (37 °C) was -1.21 ± 0.089.
The corresponding values for AUCCAGCAAUAUUACGGUUA are -0.475 ± 0.05 and 0.0679 ± 0.054.
The corresponding values for AUCCAGCAAUAUUACGGUUC are -4.5 ± 0.17 and -1.95 ± 0.17.
The matching figures for AUCCAGCAAUAUUACGUAAG: -1.59 ± 0.065 and -0.715 ± 0.087.
For the sequence AUCCAGCAAUAUUACGUAUU, the “self-splicing fitness (ln)” value runs as follows: (30 °C) -1.84 ± 0.078; (37 °C) -1.23 ± 0.093.
The matching figures for AUCCAGCAAUAUUACGUCCG: -2.45 ± 0.17 and -1.04 ± 0.15.
The matching figures for AUCCAGCAAUAUUACGUCGG: -2.71 ± 0.089 and -2.43 ± 0.13.
As for AUCCAGCAAUAUUACGUCUA, the “self-splicing fitness (ln)” value runs as follows: (30 °C) -0.908 ± 0.066; (37 °C) -0.497 ± 0.07.
The matching figures for AUCCAGCAAUAUUACGUGGC: -3.98 ± 0.17 and -2.62 ± 0.16.
The corresponding values for AUCCAGCAAUAUUACGUGUU are -2.74 ± 0.094 and -2.45 ± 0.12.
Turning to AUCGAGCAAUAUUACGAAUA, the “self-splicing fitness (ln)” value runs as follows: (30 °C) -3.09 ± 0.44; (37 °C) -2.21 ± 0.35.
The matching figures for AUCGAGCAAUAUUACGACAG: -2.51 ± 0.12 and -3.22 ± 0.19.
The corresponding values for AUCGAGCAAUAUUACGAUAG are -3.68 ± 0.22 and -3.23 ± 0.2.
Take AUCGAGCAAUAUUACGAUUC: the “self-splicing fitness (ln)” value (30 °C) was -2.98 ± 0.34.
Consider AUCGAGCAAUAUUACGCACA, for which the “self-splicing fitness (ln)” value (30 °C) was -2.46 ± 0.16 and the “self-splicing fitness (ln)” value (37 °C) is -0.76 ± 0.11.
For AUCGAGCAAUAUUACGCUAU, the “self-splicing fitness (ln)” value runs as follows: (30 °C) -3.38 ± 0.29; (37 °C) -3.08 ± 0.24.
In the case of AUCGAGCAAUAUUACGGAUG, the “self-splicing fitness (ln)” value (37 °C) was determined as 0.184 ± 0.17.
Regarding AUCGAGCAAUAUUACGGCCG, the “self-splicing fitness (ln)” value reads like this: (30 °C) -1.92 ± 0.22; (37 °C) -0.981 ± 0.2.
The corresponding values for AUCGAGCAAUAUUACGGCGC are -1.38 ± 0.091 and -0.856 ± 0.13.
Take AUCGAGCAAUAUUACGGCUG: the “self-splicing fitness (ln)” value runs as follows: (30 °C) -1.8 ± 0.24; (37 °C) -0.221 ± 0.35.

The values above are taken from the supplement of paper PMC7877785.
